# From patent US20160032013A1 (Genentech, published 2016)
# Molecular target: T1, Mouse RON-hIgG1 Fc (murine RON Sema/PSI/IPT1, natural leader + R33-V684, fused to human IgG1 Fc) (mouse)
# T1 construct: also called mRON-hFc; murine RON-Fc
# Test: SPR (Biacore), anti-Fc chip; legend names murine RON-Fc; the sheet's scheme ('RON or MSP' over 'MSP-Fc or RON-Fc') and have the MSPβ-Fc fusion captured and soluble RON-His injected
# Experimental: Binding kinetics of RON to MSP β-Fc fusion proteins and MSP proteins to RON-Fc fusions were determined using a Biacore 3000 optical biosensor equipped with a research-grade CM5 sensor chip (GE Healthcare). Amine coupling reagents, N-ethyl-N′-dimethylamino-propylcarbodiimide (EDC), N-hydroxy-succinimide (NHS) and sodium ethanolamine HCl, pH 8.5, were obtained from GE Healthcare. Standard coupling protocols were used to tether a rabbit anti-human IgG1 or rabbit anti-murine IgG2a (Jackson ImmunoResearch Laboratories) onto the biosensor surface. A biosensor chip that was subjected to the amine coupling procedure with no protein coupled was used to correct for non-specific binding. […] Various concentrations (500-3.9 nM, 2-fold dilution series) of RON-His, were injected in HBS-P buffer (10 mM HEPES, pH 7.5, 150 mM NaCl, 0.005% P20) at 25° C. with a flow rate of 30 μL/min and dissociation monitored for 240 sec. Between measurements, the biosensor surfaces were regenerated with a 120 s pulse of 10 mM glycine-HCl pH 1.5 followed by a 120 s wash with running buffer.
# T1 sequence (chain, as listed by the source limits assumed): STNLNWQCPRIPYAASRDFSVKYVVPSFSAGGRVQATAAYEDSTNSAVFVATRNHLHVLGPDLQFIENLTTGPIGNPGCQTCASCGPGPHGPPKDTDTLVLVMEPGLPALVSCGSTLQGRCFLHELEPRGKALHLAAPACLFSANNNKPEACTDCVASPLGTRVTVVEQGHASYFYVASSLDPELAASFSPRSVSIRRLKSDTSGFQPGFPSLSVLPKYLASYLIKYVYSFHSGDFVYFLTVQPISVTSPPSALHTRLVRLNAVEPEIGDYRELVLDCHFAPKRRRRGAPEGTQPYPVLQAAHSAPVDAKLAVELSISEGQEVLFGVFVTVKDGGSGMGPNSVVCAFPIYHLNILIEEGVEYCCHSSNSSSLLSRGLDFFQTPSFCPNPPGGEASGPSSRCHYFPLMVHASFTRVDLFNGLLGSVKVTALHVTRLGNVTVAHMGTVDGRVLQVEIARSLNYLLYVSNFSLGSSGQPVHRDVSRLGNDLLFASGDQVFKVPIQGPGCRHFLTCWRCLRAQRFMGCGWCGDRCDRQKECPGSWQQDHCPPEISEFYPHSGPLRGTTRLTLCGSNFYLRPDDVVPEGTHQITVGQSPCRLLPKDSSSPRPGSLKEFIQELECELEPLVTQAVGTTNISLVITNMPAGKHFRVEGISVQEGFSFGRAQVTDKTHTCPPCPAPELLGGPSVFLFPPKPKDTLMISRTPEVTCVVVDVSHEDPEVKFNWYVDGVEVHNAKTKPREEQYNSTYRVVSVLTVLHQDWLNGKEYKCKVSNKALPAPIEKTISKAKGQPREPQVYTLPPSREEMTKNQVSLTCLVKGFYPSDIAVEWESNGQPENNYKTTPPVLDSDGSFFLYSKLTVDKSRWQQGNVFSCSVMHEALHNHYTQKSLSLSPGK
row,Kd [nM],Binder
1,13.8,"m.L4.m DANA (Fc fusion, As m4m, with the DANA mutations in the Fc; also called m4m (DANA); Mouse MSP β-L4-mIgG2a Fc (DANA)) MSP β-linker-Fc fusion chain: VVGGHPGNSPWTVSLRNRQGQHFCGGSLVKEQWVLTARQCIWSCHEPLTGYEVWLGTINQNPQPGEANLQRVPVAKAVCGPAGSQLVLLKLERPVILNHHVALIALPPEQYVVPPGTKCEIAGWGESIGTSNNTVLHVASMNVISNQECNTKYRGHIQESEICTQGLVVPVGACEGDYGGPLACYTHDAWVLQGLIIPNRVCARPRWPAIFTRVSVFVDWINKVMQLETIKPCPPCKCPAPNLLGGPSVFIFPPKIKDVLMISLSPIVTCVVVAVSEDDPDVQISWFVNNVEVHTAQTQTHREDYASTLRVVSALPIQHQDWMSGKEFKCKVNNKDLPAPIERTISKPKGSVRAPQVYVLPPPEEEMTKKQVTLTCMVTDFMPEDIYVEWTNNGKTELNYKNTEPVLDSDGSYFMYSKLRVEKKNWVERNSYSCSVVHEGLHNHHTTKSFSRTPGK"
2,5,"m.L8.m DANA (Fc fusion, As m8m, with the DANA mutations in the Fc; also called m8m (DANA); Mouse MSP β-L8-mIgG2a Fc (DANA)) MSP β-linker-Fc fusion chain: VVGGHPGNSPWTVSLRNRQGQHFCGGSLVKEQWVLTARQCIWSCHEPLTGYEVWLGTINQNPQPGEANLQRVPVAKAVCGPAGSQLVLLKLERPVILNHHVALIALPPEQYVVPPGTKCEIAGWGESIGTSNNTVLHVASMNVISNQECNTKYRGHIQESEICTQGLVVPVGACEGDYGGPLACYTHDAWVLQGLIIPNRVCARPRWPAIFTRVSVFVDWINKVMQLEPRGPTIKPCPPCKCPAPNLLGGPSVFIFPPKIKDVLMISLSPIVTCVVVAVSEDDPDVQISWFVNNVEVHTAQTQTHREDYASTLRVVSALPIQHQDWMSGKEFKCKVNNKDLPAPIERTISKPKGSVRAPQVYVLPPPEEEMTKKQVTLTCMVTDFMPEDIYVEWTNNGKTELNYKNTEPVLDSDGSYFMYSKLRVEKKNWVERNSYSCSVVHEGLHNHHTTKSFSRTPGK"
3,6.6,"m.L16.m DANA (Fc fusion, As m16m, with the DANA mutations in the Fc; also called m16m (DANA); Mouse MSP β-L16-mIgG2a Fc (DANA)) MSP β-linker-Fc fusion chain: VVGGHPGNSPWTVSLRNRQGQHFCGGSLVKEQWVLTARQCIWSCHEPLTGYEVWLGTINQNPQPGEANLQRVPVAKAVCGPAGSQLVLLKLERPVILNHHVALIALPPEQYVVPPGTKCEIAGWGESIGTSNNTVLHVASMNVISNQECNTKYRGHIQESEICTQGLVVPVGACEGDYGGPLACYTHDAWVLQGLIIPNRVCARPRWPAIFTRVSVFVDWINKVMQLEQVTDKKIEPRGPTIKPCPPCKCPAPNLLGGPSVFIFPPKIKDVLMISLSPIVTCVVVAVSEDDPDVQISWFVNNVEVHTAQTQTHREDYASTLRVVSALPIQHQDWMSGKEFKCKVNNKDLPAPIERTISKPKGSVRAPQVYVLPPPEEEMTKKQVTLTCMVTDFMPEDIYVEWTNNGKTELNYKNTEPVLDSDGSYFMYSKLRVEKKNWVERNSYSCSVVHEGLHNHHTTKSFSRTPGK"
4,9.7,"m.L12.m DANA (Fc fusion, As m12m, with the DANA mutations in the Fc; also called m12m (DANA); Mouse MSP β-L12-mIgG2a Fc (DANA)) MSP β-linker-Fc fusion chain: VVGGHPGNSPWTVSLRNRQGQHFCGGSLVKEQWVLTARQCIWSCHEPLTGYEVWLGTINQNPQPGEANLQRVPVAKAVCGPAGSQLVLLKLERPVILNHHVALIALPPEQYVVPPGTKCEIAGWGESIGTSNNTVLHVASMNVISNQECNTKYRGHIQESEICTQGLVVPVGACEGDYGGPLACYTHDAWVLQGLIIPNRVCARPRWPAIFTRVSVFVDWINKVMQLEKKIEPRGPTIKPCPPCKCPAPNLLGGPSVFIFPPKIKDVLMISLSPIVTCVVVAVSEDDPDVQISWFVNNVEVHTAQTQTHREDYASTLRVVSALPIQHQDWMSGKEFKCKVNNKDLPAPIERTISKPKGSVRAPQVYVLPPPEEEMTKKQVTLTCMVTDFMPEDIYVEWTNNGKTELNYKNTEPVLDSDGSYFMYSKLRVEKKNWVERNSYSCSVVHEGLHNHHTTKSFSRTPGK"
5,11.6,"h.L16.m (Fc fusion, Human MSP β joined by a 16-residue linker to murine IgG2a Fc; also called h16m; Human MSP β-L16-mIgG2a Fc) MSP β-linker-Fc fusion chain: VVGGHPGNSPWTVSLRNRQGQHFCGGSLVKEQWILTARQCFSSCHMPLTGYEVWLGTLFQNPQHGEPSLQRVPVAKMVCGPSGSQLVLLKLERSVTLNQRVALISLPPEWYVVPPGTKCEIAGWGETKGTGNDTVLNVALLNVISNQECNIKHRGRVRESEMCTEGLLAPVGACEGDYGGPLACFTHNAWVLEGIIIPNRVCARSRWPAVFTRVSVFVDWIHKVMRLGQVTDKKIEPRGPTIKPCPPCKCPAPNLLGGPSVFIFPPKIKDVLMISLSPIVTCVVVDVSEDDPDVQISWFVNNVEVHTAQTQTHREDYNSTLRVVSALPIQHQDWMSGKEFKCKVNNKDLPAPIERTISKPKGSVRAPQVYVLPPPEEEMTKKQVTLTCMVTDFMPEDIYVEWTNNGKTELNYKNTEPVLDSDGSYFMYSKLRVEKKNWVERNSYSCSVVHEGLHNHHTTKSFSRTPGK"
